This note sets out measurements from patent US20230212254A1 (published 2023).

This assay addresses T1, FITC-labeled recombinant human PSMA protein (Acro, #PSA-HF244) (human, UniProt Q04609 44-750, FITC label).
T1 construct: Bought reagent
The assay can be described thus: flow cytometry, gating of CAR(+) cells for T cell subset analysis (FIG. 79). The procedure: Eight days after the start of stimulation, the CAR-T cells constructed in Example 8 were analyzed for T cell subsets using a flow cytometer: they were classified into stem cell-like memory T cells (T memory stem cells, CD45RA⁺CCR7⁺), central memory T cells (CD45RA⁻CCR7⁺), effector memory T cells (CD45RA⁻ CCR7⁻) and effector T cells (CD45RA⁺CCR7⁻) according to the presence or absence of the expression of CD45RA and CCR7. […] In addition, when analyzing PSMA-specific CAR(+) cells, FITC-labeled recombinant human PSMA protein (Acro, #PSA-HF244) was used to stain the CAR.
A general note: In flow cytometry, cells or beads pass a laser one at a time.

T1 sequence (Q04609 44-750 limits assumed): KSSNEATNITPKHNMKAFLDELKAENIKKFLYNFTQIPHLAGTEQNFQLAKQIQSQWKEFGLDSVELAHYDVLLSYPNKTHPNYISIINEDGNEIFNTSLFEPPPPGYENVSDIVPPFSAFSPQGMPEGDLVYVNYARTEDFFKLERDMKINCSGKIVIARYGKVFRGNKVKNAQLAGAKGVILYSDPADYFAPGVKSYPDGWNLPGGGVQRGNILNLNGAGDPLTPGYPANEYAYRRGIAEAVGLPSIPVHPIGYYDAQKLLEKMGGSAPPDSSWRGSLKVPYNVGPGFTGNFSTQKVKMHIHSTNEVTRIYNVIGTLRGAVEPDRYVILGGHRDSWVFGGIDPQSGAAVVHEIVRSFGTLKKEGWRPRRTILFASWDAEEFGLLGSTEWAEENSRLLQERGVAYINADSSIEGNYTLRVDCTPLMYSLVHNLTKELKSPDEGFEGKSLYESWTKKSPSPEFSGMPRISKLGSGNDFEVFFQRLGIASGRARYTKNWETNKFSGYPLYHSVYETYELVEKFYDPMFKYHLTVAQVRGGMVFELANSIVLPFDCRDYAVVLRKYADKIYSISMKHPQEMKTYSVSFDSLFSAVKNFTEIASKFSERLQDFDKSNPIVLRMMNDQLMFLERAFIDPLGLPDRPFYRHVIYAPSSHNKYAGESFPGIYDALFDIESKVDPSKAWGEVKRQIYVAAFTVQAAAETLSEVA

B1: PSMA-specific CAR (Pbbz): scFv derived from the PSMA-specific J591 antibody, CD8 hinge-transmembrane domain, 4-1BB co-stimulatory domain, CD3ζ intracellular … (other)
chain: DIVMTQSHKFMSTSVGDRVSIICKASQDVGTAVDWYQQKPGQSPKLLIYWASTRHTGVPDRFTGSGSGTDFTLTITNVQSEDLADYFCQQYNSYPLTFGAGTMLDLKRGGGGSGGGGSGGGGSEVQLQQSGPELKKPGTSVRISCKTSGYTFTEYTIHWVKQSHGKSLEWIGNINPNNGGTTYNQKFEDKATLTVDKSSSTAYMELRSLTSEDSAVYYCAAGWNFDYWGQGTTLTVSSTTTPAPRPPTPAPTIASQPLSLRPEACRPAAGGAVHTRGLDFACDIYIWAPLAGTCGVLLLSLVITLYCKRGRKKLLYIFKQPFMRPVQTTQEEDGCSCRFPEEEEGGCELRVKFSRSADAPAYQQGQNQLYNELNLGRREEYDVLDKRRGRDPEMGGKPRRKNPQEGLYNELQKDKMAEAYSEIGMKGERRRGKGHDGLYQGLSTATKDTYDALHMQALPPR
notes: The Pbbz#F, #C, #S2 and #FCS2 cells are treated as carrying the same CAR
As to B1, the binding result was “binds”.
